The record followed here is patent publication US20070031855A1 (UNIVERSITY OF WYOMING, published 2007).

For the experiment, the target named is CryIAb toxin of Bacillus thuringiensis (Bacillus thuringiensis, UniProt P0A370 29-607, 125I-labeled (probe in blots and in the cell binding assay; the unlabeled toxin was the competitor)).

B1: Recombinant BT-R1 protein expressed from the BT-R1 cDNA in pcDNA3 in mammalian cells (receptor)
chain: QERCGYMTAIPRLPRPDNLPVLNFEGQTWSQRPLLPAPERDDLCMDAYHVITANLGTQVIYMDEEIEDEITIAILNYNGPSTPFIELPFLSGSYNLLMPVIRRVDNGEWHLIITQRQHYELPGMQQYMFNVRVDGQSLVAGVSLAIVNIDDNAPIIQNFEPCRVPELGEPGLTECTYQVSDADGRISTEFMTFRIDSVRGDEETFYIERTNIPNQWMWLNMTIGVNTSLNFVTSPLHIFSVTALDSLPNTHTVTMMVQVANVNSRPPRWLEIFAVQQFEEKSYQNFTVRAIDGDTEINMPINYRLITNEEDTFFSIEALPGGKSGAVFLVSPIDRDTLQREVFPLTIVAYKYDEEAFSTSTNVVIIVTDINDQRPEPIHKEYRLAIMEETPLTLNFDKEFGFHDKDLGQNAQYTVRLESVDPPGAAEAFYIAPEVGYQRQTFIMGTLNHSMLDYEVPEFQSITIRVVATDNNDTRHVGVALVHIDLINWNDEQPIFEHAVQTVTFDETEGEGFFVAKAVAHDRDIGDVVEHTLLGNAVNFLTIDKLTGDIRVSANDSFNYHRESELFVQVRATDTLGEPFHTATSQLVIRLNDINNTPPTLRLPRGSPQVEENVPDGHVITQELRATDPDTTADLRFEINWDTSFATKQGRQANPDEFRNCVEIETIFPEINNRGLAIGRVVAREIRHNVTIDYEEFEVLSLTVRVRDLNTVYGDDYDESMLTITIIDMNDNAPVWVEGTLEQNFRVREMSAGGLVVGSVRADDIDGPLYNQVRYTIFPREDTDKDLIMIDFLTGQISVNTSGAIDADTPPRFHLYYTVVASDRCSTEDPADCPPDPTYWETEGNITIHITDTNNKVPQAETTKFDTVVYIYENATHLDEVVTLIASDLDRDEIYHTVSYVINYAVNPRLMNFFSVNRETGLVYVDYETQGSGEVLDRDGDEPTHRIFFNLIDNFMGEGEGNRNQNDTEVLVILLDVNDNAPELPPPSELSWTISENLKQGVRLEPHIFAPDRDEPDTDNSRVGYEILNLSTERDIEVPELFVMIQIANVTGELETAMDLKGYWGTYAIHIRAFDHGIPQMSMNETYELIIHPFNYYAPEFVFPTNDAVIRLARERAVINGVLATVNGEFLERISATDPDGLHAGVVTFQVVGDEESQRYFQVVNDGENLGSLRLLQAVPEEIREFRITIRATDQGTDPGPLSTDMTFRVVFVPTQGEPRFASSEHAVAFIEKSAGMEESHQLPLAQDIKNHLCEDDCHSIYYRIIDGNSEGHFGLDPVRNRLFLKKELIREQSASHTLQVAASNSPDGGIPLPASILTVTVTVREADPRPVFVRELYTAGISTADSIGRELLRLHATQSEGSAITYAIDYDTMVVDPSLEAVRQSAFVLNAQTGVLTLNIQPTATMHGLFKFEVTATDTAGAQDRTDVTVYVVSSQNRVYFVFVNTLQQVEDNRDFIADTFSAGFNMTCNIDQVVPANDPVTGVALEHSTQMRGHFIRDNVPVLADEIEQIRSDLVLLSSIQTTLAARSLVLQDLLTNSSPDSAPDSSLTVYVLASLSAVLGFMCLVLLLTFIIRTRALNRRLEALSMTKYGSLDSGLNRAGIAAPGTNKHTVEGSNPIFNEAIKTPDLDAISEGSNDSDLIGIEDLPHFGNVFMDPEVNEKANGYPEVANHNNNFAFNPTPFSPEFVNGQFRKI
modifications: N-glycosylated (210 kD)
Consider B1, for which the Kd (as a rule, the concentration at which binding is half-saturated) turned out to be 1.01 nM.
